Drawing on patent publication US20190024103, this text covers activity for ten sequences.

Common to all, as to experiment: cell_activity
Holding throughout (details): TALEN pair

Data set [1] relates to GmFAD3_T02 TALEN right monomer (synthetic).
In data set [2] the test system is GmFAD3_T01 TALEN left monomer (synthetic).
Data set [3] has as its system GmFAD3_T03 TALEN right monomer (synthetic).
The test system of data set [4] is GmFAD3_T01 TALEN right monomer (synthetic).
The test system of data set [5] is GmFAD3_T03 TALEN left monomer (synthetic).
Data set [6] concerns GmFAD3_T02 TALEN left monomer (synthetic).
The mark [7] stands for this setting: soybean protoplasts, text p95 gives 2.39.

For the sequence “CCTCAATTCTTGTGCC (double strand) [FAD3B T02 right site]”, the activity in data set [1] (FAD3B off-target) was found to be 8.81 % NHEJ.
In the case of “TCATTCTTCACATTGT (double strand) [FAD3A_T01 left]”, the activity in data set [2] (soybean protoplasts) came out at 10.2 % NHEJ.
Turning to “ATGGTTAAAGACACAAAGCCTTTAGCCTATGCTGCCAATAATGGATACCAACAAAAGGGTTCTTCTTTTGATTTTGATCCTAGCGCTCCTCCACCGTTTAAGATTGCAGAAATCAGAGCTTCAATACCAAAACATTGCTGGGTCAAGAATCCATGGAGATCCCTCAGTTATGTTCTCAGGGATGTGCTTGTAATTGCTGCATTGGTGGCTGCAGCAATTCACTTCGACAACTGGCTTCTCTGGCTAATCTATTGCCCCATTCAAGGCACAATGTTCTGGGCTCTCTTTGTTCTTGGACATGATTGGTAATAATTTTTGTGTTTCTTACTCTTTTTTTTTTTTTTTTGTTTATGATATGAATCTCACACATTGTTCTGTTATGTCATTTCTTCTTCATTTGGCTTTAGACAACTTAAATTTGAGATCTTTATTATGTTTTTGCTTATATGGTAAAGTGATTCTTCATTATTTCATTCTTCATTGATTGAATTGAACAGTGGCCATGGAAGCTTTTCAGATAGCCCTTTGCTGAATAGCCTGGTGGGACACATCTTGCATTCCTCAATTCTTGTGCCATACCATGGATGGTTAGTTCATACTGGCTTTTTTGTTTGTTCATTTGTCATTGAAAAAAAATCTTTTGTTGATTCAATTATTTTTATAGTGTGTTTGGAAGCCCGTTTGAGAAAATAAGAAATCGCATCTGGAATGTGAAAGTTATAACTATTTAGCTTCATCTGTCGTTGCAAGTTCTTTTATTGGTTAAATTTTTATAGCGTGCTAGGAAACCCATTCGAGAAAATAAGAAATCACATCTGGAATGTGAAAGTTATAACTGTTAGCTTCTGAGTAAACGTGGAAAAACCACATTTTGGATTTGGAACCAAATTTTATTTGATAAATGACAACCAAATTGATTTTGATGGATTTTGCAGGAGAATTAGCCACAGAACTCACCATCAAAACCATGGACACATTGAGAAGGATGAGTCATGGGTTCCA (double strand) [FAD3B gene]”, the activity was 2.39 % NHEJ in data set [3] (FAD3B off-target), 1.48 % NHEJ in data set [4] (FAD3B off-target), 1.48 % NHEJ in data set [2] (FAD3B off-target) and 2.39 % NHEJ in data set [5] (FAD3B off-target).
Turning to “AGGAAGCTTTTCAGAC (double strand) [FAD3A_T01 right]”, in data set [4] (soybean protoplasts), the activity worked out at 10.2 % NHEJ.
Consider “CTGAATAGCCTGGTGG (double strand) [FAD3B T02 left site]”, for which the activity in data set [6] (FAD3B off-target) amounted to 8.81 % NHEJ.
With “TTTGCAGGAGAATTAT (double strand) [FAD3A_T03 left]”, the activity in data set [5] (setting [7]) is 4.4 % NHEJ.
For the sequence “CTAAATAGCCTGGTGT (double strand) [FAD3A_T02 left]”, the activity in data set [6] (soybean protoplasts) is 14.5 % NHEJ.
On to “ACAAAATCATGGACAC (double strand) [FAD3A_T03 right]”, for which, in data set [3] (setting [7]), the activity stood at 4.4 % NHEJ.
Regarding “ATGGTTCAAGCACAGCCTCTACAACATGTTGGTAATGGTGCAGGGAAAGAAGATCAAGCTTATTTTGATCCAAGTGCTCCACCACCCTTCAAGATTGCAAATATCAGAGCAGCAATTCCAAAACATTGCTGGGAGAAGAACACATTGAGATCTCTGAGTTATGTTCTGAGGGATGTGTTGGTAGTGACTGCATTGGTAGCTGCAGCAATCGGCTTCAATAGCTGGTTCTTCTGGCCACTCTATTGGCCTGCACAAGGCACAATGTTTTGGGCACTTTTTGTTCTTGGACATGATTGGTAACTAATTATTATTACAAATTGTTATGTTATGTTATGTTATGTTGTTGTGCCTTTTTCTCAGTGATGCTTTAGTCATTTCATTTCACTTGGTTATGCATGATTGTTCGTTCATATGTTCTGTCATGGTGAGTTCTAATTTGATTGATGCATGGAACAGTGGTCATGGAAGTTTTTCAAACAGTCCTTTGTTGAACAGCATTGTGGGCCACATCTTGCACTCTTCAATTCTTGTACCATACCATGGATGGTCGGTTCCTTTTAGCAACTTTTCATGTTCACTTTGTCCTTAAATTTTTTTTTATGTTTGTTAAAAAATCTTTGGTCTGATTTAACAACCTAACCATTTTTACAACTCATGGATTTTTTGCAGGAGAATTAGCCACAGGACTCACCATCAGAACCATGGCCATGTTGAGAAGGATGAATCATGGGTTCCG (double strand) [FAD3C gene]”, the activity in data set [3] (FAD3C off-target) stood at 0.17 % NHEJ; in data set [4] (FAD3C off-target), 0.04 % NHEJ; in data set [2] (FAD3C off-target), 0.04 % NHEJ; in data set [6] (FAD3C off-target) it was 0.01 % NHEJ; in data set [5] (FAD3C off-target), 0.17 % NHEJ; in data set [1] (FAD3C off-target), 0.01 % NHEJ.
Take “ACTCAATTCTTGTGCC (double strand) [FAD3A_T02 right]”: the activity in data set [1] (soybean protoplasts) was 14.5 % NHEJ.
